Numbered stars: 1 amine (or outer) side, 2 acyl side, 3 side chain; on linkers, the order of the positions; unused ones are H or OH. Square brackets hold non-standard residues; d marks the D form. Primed or numbered codes have the meaning given here. Phe(2,6-Me2,4-CONH2) = Cc1cc(C(N)=O)cc(C)c1C[C@H](N)C(=O)O; Bip = N[C@@H](Cc1ccc(-c2ccccc2)cc1)C(=O)O; Phe(4-CN) = N#Cc1ccc(C[C@H](N)C(=O)O)cc1; Dip = N[C@H](C(=O)O)C(c1ccccc1)c1ccccc1; Phe(4-F) = N[C@@H](Cc1ccc(F)cc1)C(=O)O; Dmt = Cc1cc(O)cc(C)c1C[C@H](N)C(=O)O; NMeβAla = CN(CCC(=O)[*:2])[*:1]; Tic = O=C(O)[C@@H]1Cc2ccccc2CN1; dTic = O=C(O)[C@H]1Cc2ccccc2CN1; β3hF = N[C@H](CC(=O)O)Cc1ccccc1; Tic(7-OH)′ = not defined here; Nle = CCCC[C@H](N)C(=O)O; dNMeA = CN[C@H](C)C(=O)O; Aib = CC(C)(N)C(=O)O; Sar = CNCC(=O)O
Assays:
[1] = target: δ-opioid receptor (DOR), Human-ORPD1 (human, UniProt P41143 1-372); test: cell-based or functional assay
[2] = target: µ-opioid receptor (MOR), Human-ORPM1 (human, UniProt P35372 1-400); test: cell-based or functional assay
Sequence of µ-opioid receptor (MOR), Human-ORPM1 (P35372 whole entry): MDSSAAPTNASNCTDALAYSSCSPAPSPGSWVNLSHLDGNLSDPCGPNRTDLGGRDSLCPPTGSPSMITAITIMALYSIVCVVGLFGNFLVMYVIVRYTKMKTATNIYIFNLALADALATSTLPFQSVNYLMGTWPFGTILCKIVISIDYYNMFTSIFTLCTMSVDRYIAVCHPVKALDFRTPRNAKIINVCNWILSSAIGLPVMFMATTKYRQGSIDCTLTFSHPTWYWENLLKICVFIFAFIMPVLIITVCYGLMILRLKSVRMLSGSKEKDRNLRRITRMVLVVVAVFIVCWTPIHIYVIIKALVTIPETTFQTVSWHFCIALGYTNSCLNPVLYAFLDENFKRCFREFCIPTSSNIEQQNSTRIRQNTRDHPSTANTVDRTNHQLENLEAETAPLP

Sequence of δ-opioid receptor (DOR), Human-ORPD1 (P41143 whole entry, stated change not applied): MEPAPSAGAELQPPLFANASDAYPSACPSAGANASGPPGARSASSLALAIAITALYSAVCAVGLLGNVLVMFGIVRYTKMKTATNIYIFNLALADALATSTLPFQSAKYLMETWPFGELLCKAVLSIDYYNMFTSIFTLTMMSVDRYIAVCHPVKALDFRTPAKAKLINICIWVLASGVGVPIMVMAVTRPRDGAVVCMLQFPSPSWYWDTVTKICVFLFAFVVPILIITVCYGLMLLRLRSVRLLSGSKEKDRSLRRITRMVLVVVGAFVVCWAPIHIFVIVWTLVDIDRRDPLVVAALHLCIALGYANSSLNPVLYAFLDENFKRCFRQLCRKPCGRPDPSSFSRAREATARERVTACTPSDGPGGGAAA

| Binder | DOR EC50 [1] | MOR EC50 [2] |
| --- | --- | --- |
| H-[Dmt][dR]GW-NH2 (SMILES Cc1cc(O)cc(C)c1C[C@H](N)C(=O)N[C@H](CCCNC(=N)N)C(=O)NCC(=O)N[C@@H](Cc1c[nH]c2ccccc12)C(N)=O) [H-DMT-r-G-W-NH2] | ≤ 50 nM | – |
| H-[Phe(2,6-Me2,4-CONH2)][dT]G[β3hF][Sar]-NH2 (SMILES Cc1cc(C(N)=O)cc(C)c1C[C@H](N)C(=O)N[C@@H](C(=O)NCC(=O)N[C@H](CC(=O)N(C)CC(N)=O)Cc1ccccc1)[C@H](C)O) [H-Phe(DMC)-(D)Thr-G-bhF-Sar-NH2] | ≤ 1 nM | ≤ 10 nM |
| H-[Dmt][dT]G[β3hF][Sar]-NH2 (SMILES Cc1cc(O)cc(C)c1C[C@H](N)C(=O)N[C@@H](C(=O)NCC(=O)N[C@H](CC(=O)N(C)CC(N)=O)Cc1ccccc1)[C@H](C)O) [H-DMT-(D)Thr-G-bhF-Sar-NH2] | ≤ 1 nM | ≤ 1 nM |
| H-[Dmt][dR]W[Nle]-NH2 (SMILES CCCC[C@H](NC(=O)[C@H](Cc1c[nH]c2ccccc12)NC(=O)[C@@H](CCCNC(=N)N)NC(=O)[C@@H](N)Cc1c(C)cc(O)cc1C)C(N)=O) [H-DMT-r-W-Nle-NH2] | ≤ 50 nM | – |
| H-[Dmt][dR][Sar]W-NH2 (SMILES Cc1cc(O)cc(C)c1C[C@H](N)C(=O)N[C@H](CCCNC(=N)N)C(=O)N(C)CC(=O)N[C@@H](Cc1c[nH]c2ccccc12)C(N)=O) [H-DMT-r-Sar-W-NH2] | > 200 nM | – |
| H-[Dmt][dR]F[Dip]-NH2 (SMILES Cc1cc(O)cc(C)c1C[C@H](N)C(=O)N[C@H](CCCNC(=N)N)C(=O)N[C@@H](Cc1ccccc1)C(=O)N[C@H](C(N)=O)C(c1ccccc1)c1ccccc1) [H-DMT-r-F-DPA-NH2] | ≤ 50 nM | – |
| H-[Dmt][dR][Phe(4-F)][Sar]-NH2 (SMILES Cc1cc(O)cc(C)c1C[C@H](N)C(=O)N[C@H](CCCNC(=N)N)C(=O)N[C@@H](Cc1ccc(F)cc1)C(=O)N(C)CC(N)=O) [H-DMT-r-Phe(4-F)-Sar-NH2] | ≤ 10 nM | ≤ 1 nM |
| H-[Dmt][dA][Aib][β3hF][Sar]-NH2 (SMILES Cc1cc(O)cc(C)c1C[C@H](N)C(=O)N[C@H](C)C(=O)NC(C)(C)C(=O)N[C@H](CC(=O)N(C)CC(N)=O)Cc1ccccc1) [H-DMT-a-Aib-bhF-Sar-NH2] | ≤ 1 nM | ≤ 1 nM |
| H-[Dmt][dR][Bip]K-NH2 (SMILES Cc1cc(O)cc(C)c1C[C@H](N)C(=O)N[C@H](CCCNC(=N)N)C(=O)N[C@@H](Cc1ccc(-c2ccccc2)cc1)C(=O)N[C@@H](CCCCN)C(N)=O) [H-DMT-r-Bip-K-NH2] | > 200 nM | ≤ 200 nM |
| H-[Dmt][dA]I[β3hF][Sar]-NH2 (SMILES CC[C@H](C)[C@H](NC(=O)[C@@H](C)NC(=O)[C@@H](N)Cc1c(C)cc(O)cc1C)C(=O)N[C@H](CC(=O)N(C)CC(N)=O)Cc1ccccc1) [H-DMT-a-ILeu-bhF-Sar-NH2] | ≤ 50 nM | ≤ 1 nM |
| H-[Dmt][dNMeA]F[Sar]-NH2 (SMILES Cc1cc(O)cc(C)c1C[C@H](N)C(=O)N(C)[C@H](C)C(=O)N[C@@H](Cc1ccccc1)C(=O)N(C)CC(N)=O) [H-DMT-N(Me)-a-F-Sar-NH2] | ≤ 10 nM | ≤ 1 nM |
| H-[Tic(7-OH)′][dA]G[β3hF][Sar]-NH2 [H-Tic(7-OH)-a-G-bhF-Sar-NH2] | ≤ 50 nM | – |
| H-[Phe(3-OH)][dA]G[β3hF][Sar]-NH2 [H-meta-Tyr-a-G-bhF-Sar-NH2] | > 200 nM | – |
| H-[Dmt][dR]W[NMeβAla]-OH (SMILES Cc1cc(O)cc(C)c1C[C@H](N)C(=O)N[C@H](CCCNC(=N)N)C(=O)N[C@@H](Cc1c[nH]c2ccccc12)C(=O)N(C)CCC(=O)O) [H-DMT-r-W-N(Me)bAla-OH] | ≤ 50 nM | ≤ 1 nM |
| H-[Dmt][dR][Phe(4-CN)][Sar]-NH2 (SMILES Cc1cc(O)cc(C)c1C[C@H](N)C(=O)N[C@H](CCCNC(=N)N)C(=O)N[C@@H](Cc1ccc(C#N)cc1)C(=O)N(C)CC(N)=O) [H-DMT-r-Phe(4-CN)-Sar-NH2] | ≤ 1 nM | ≤ 10 nM |
| H-[Phe(4-NHCOCH3)][dA]G[β3hF][Sar]-NH2 [H-Phe(4-NHCOCH3)-a-G-bhF-Sar-NH2] | ≤ 200 nM | – |

| Binder | DOR EC50 [1] | MOR EC50 [2] |
| --- | --- | --- |
| H-[Dmt][dA]L[β3hF][Sar]-NH2 (SMILES Cc1cc(O)cc(C)c1C[C@H](N)C(=O)N[C@H](C)C(=O)N[C@@H](CC(C)C)C(=O)N[C@H](CC(=O)N(C)CC(N)=O)Cc1ccccc1) [H-DMT-a-Leu-bhF-Sar-NH2] | ≤ 50 nM | ≤ 1 nM |
| H-[Dmt][dR]FV-NH2 (SMILES Cc1cc(O)cc(C)c1C[C@H](N)C(=O)N[C@H](CCCNC(=N)N)C(=O)N[C@@H](Cc1ccccc1)C(=O)N[C@H](C(N)=O)C(C)C) [H-DMT-r-F-V-NH2] | ≤ 10 nM | – |
| H-[Dmt][dR]F[Sar]-NH2 (SMILES Cc1cc(O)cc(C)c1C[C@H](N)C(=O)N[C@H](CCCNC(=N)N)C(=O)N[C@@H](Cc1ccccc1)C(=O)N(C)CC(N)=O) [H-DMT-r-F-Sar-NH2] | ≤ 10 nM | ≤ 1 nM |
| H-[Dmt][dY]G[β3hF][Sar]-NH2 (SMILES Cc1cc(O)cc(C)c1C[C@H](N)C(=O)N[C@H](Cc1ccc(O)cc1)C(=O)NCC(=O)N[C@H](CC(=O)N(C)CC(N)=O)Cc1ccccc1) [H-DMT-(D)Tyr-G-bhF-Sar-NH2] | ≤ 1 nM | ≤ 1 nM |
| H-[Dmt][dNMeA]XG-NH2 (not fully specified (residue 3); printed as DMT-N(Me)a-Aba-G) [H-DMT-N(Me)-a-Aba-G-NH2] | ≤ 1 nM | ≤ 1 nM |
| H-[Dmt][dTic]F[Sar]-NH2 (SMILES Cc1cc(O)cc(C)c1C[C@H](N)C(=O)N1Cc2ccccc2C[C@@H]1C(=O)N[C@@H](Cc1ccccc1)C(=O)N(C)CC(N)=O) [H-DMT-dTic-F-Sar-NH2] | ≤ 10 nM | ≤ 1 nM |
| H-[Dmt][Tic]G[β3hF][Sar]-NH2 (SMILES Cc1cc(O)cc(C)c1C[C@H](N)C(=O)N1Cc2ccccc2C[C@H]1C(=O)NCC(=O)N[C@H](CC(=O)N(C)CC(N)=O)Cc1ccccc1) [H-DMT-Tic-G-bhF-Sar-NH2] | ≤ 200 nM | ≤ 200 nM |
| H-[Dmt][dD]G[β3hF][Sar]-NH2 (SMILES Cc1cc(O)cc(C)c1C[C@H](N)C(=O)N[C@H](CC(=O)O)C(=O)NCC(=O)N[C@H](CC(=O)N(C)CC(N)=O)Cc1ccccc1) [H-DMT-(D)Asp-G-bhF-Sar-NH2] | ≤ 1 nM | ≤ 1 nM |
| H-[Dmt][dR]FL-NH2 (SMILES Cc1cc(O)cc(C)c1C[C@H](N)C(=O)N[C@H](CCCNC(=N)N)C(=O)N[C@@H](Cc1ccccc1)C(=O)N[C@@H](CC(C)C)C(N)=O) [H-DMT-r-F-L-NH2] | ≤ 50 nM | – |
| H-[Phe(2,6-Me2,4-CONH2)]GG[β3hF][Sar]-NH2 (SMILES Cc1cc(C(N)=O)cc(C)c1C[C@H](N)C(=O)NCC(=O)NCC(=O)N[C@H](CC(=O)N(C)CC(N)=O)Cc1ccccc1) [H-Phe(DMC)-G-G-bhF-Sar-NH2] | ≤ 1 nM | ≤ 1 nM |
| H-[Dmt][dR]X[NMeβAla]-OH (not fully specified (residue 3); printed as H-DMT-r-Homo-F-N(Me)bAla-OH) [H-DMT-r-Homo-F-N(Me)bAla-OH] | ≤ 1 nM | ≤ 1 nM |
| H-[Dmt][dR]G[Dip]-NH2 (SMILES Cc1cc(O)cc(C)c1C[C@H](N)C(=O)N[C@H](CCCNC(=N)N)C(=O)NCC(=O)N[C@H](C(N)=O)C(c1ccccc1)c1ccccc1) [H-DMT-r-G-DPA-NH2] | > 200 nM | – |
| H-[Dmt]GG[β3hF][Sar]-NH2 (SMILES Cc1cc(O)cc(C)c1C[C@H](N)C(=O)NCC(=O)NCC(=O)N[C@H](CC(=O)N(C)CC(N)=O)Cc1ccccc1) [H-DMT-G-G-bhF-Sar-NH2] | ≤ 1 nM | ≤ 1 nM |
| H-[Phe(2,6-Me2,4-CONH2)][Tic]G[β3hF][Sar]-NH2 (SMILES Cc1cc(C(N)=O)cc(C)c1C[C@H](N)C(=O)N1Cc2ccccc2C[C@H]1C(=O)NCC(=O)N[C@H](CC(=O)N(C)CC(N)=O)Cc1ccccc1) [H-Phe(DMC)-Tic-G-bhF-Sar-NH2] | ≤ 200 nM | ≤ 200 nM |
| H-[Dmt][dR][Dip][Sar]-NH2 (SMILES Cc1cc(O)cc(C)c1C[C@H](N)C(=O)N[C@H](CCCNC(=N)N)C(=O)N[C@H](C(=O)N(C)CC(N)=O)C(c1ccccc1)c1ccccc1) [H-DMT-r-DPA-Sar-NH2 (Seq. ID 32)] | > 200 nM | – |

— patent publication US20190076400A1 (PROTAGONIST THERAPEUTICS, published 2019)
